Reference: patent US20260015399A1 (Boehringer Ingelheim, published 2026)
*1 amine or outer side, *2 acyl side, *3 side chain or, on linkers, in order; H or OH if unused. Side-chain parts run from the residue outwards. The star is where a group is joined. C18 diacid = O=C(O)CCCCCCCCCCCCCCCCC(=O)*; γGlu = O=C(O)[C@H](CCC(=O)[*:2])N[*:1]; Isovaleryl = CC(C)CC(=O)*; Ahx = NCCCCCC(=O)O

T1: human NPY2 receptor (human, UniProt P49146 1-381)
T1 construct: whole, on cells; also called hNPY2-R; hNPY2R
T1 sequence (looked up): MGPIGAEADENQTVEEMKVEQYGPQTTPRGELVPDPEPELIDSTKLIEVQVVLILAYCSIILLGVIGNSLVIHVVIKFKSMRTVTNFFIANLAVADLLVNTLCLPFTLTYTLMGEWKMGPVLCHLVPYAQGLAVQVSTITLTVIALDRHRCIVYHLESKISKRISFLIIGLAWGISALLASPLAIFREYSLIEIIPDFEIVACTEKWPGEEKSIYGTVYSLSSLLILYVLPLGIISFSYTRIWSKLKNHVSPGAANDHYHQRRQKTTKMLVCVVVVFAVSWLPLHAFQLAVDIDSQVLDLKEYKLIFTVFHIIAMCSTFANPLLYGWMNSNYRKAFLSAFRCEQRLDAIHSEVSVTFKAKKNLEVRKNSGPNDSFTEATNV

B1: Compound 123 (peptide)
peptide: Isovaleryl-APEK([Ahx-γGlu-C18 diacid])PEEDAAPEELQKYYVSLRHYYNWLTRQRY-NH2
SMILES: CC(C)CC(=O)N[C@@H](C)C(=O)N1CCC[C@H]1C(=O)N[C@@H](CCC(=O)O)C(=O)N[C@@H](CCCCNC(=O)CCCCCNC(=O)CC[C@H](NC(=O)CCCCCCCCCCCCCCCCC(=O)O)C(=O)O)C(=O)N1CCC[C@H]1C(=O)N[C@@H](CCC(=O)O)C(=O)N[C@@H](CCC(=O)O)C(=O)N[C@@H](CC(=O)O)C(=O)N[C@@H](C)C(=O)N[C@@H](C)C(=O)N1CCC[C@H]1C(=O)N[C@@H](CCC(=O)O)C(=O)N[C@@H](CCC(=O)O)C(=O)N[C@@H](CC(C)C)C(=O)N[C@@H](CCC(N)=O)C(=O)N[C@@H](CCCCN)C(=O)N[C@@H](Cc1ccc(O)cc1)C(=O)N[C@@H](Cc1ccc(O)cc1)C(=O)N[C@H](C(=O)N[C@@H](CO)C(=O)N[C@@H](CC(C)C)C(=O)N[C@@H](CCCNC(=N)N)C(=O)N[C@@H](Cc1c[nH]cn1)C(=O)N[C@@H](Cc1ccc(O)cc1)C(=O)N[C@@H](Cc1ccc(O)cc1)C(=O)N[C@@H](CC(N)=O)C(=O)N[C@@H](Cc1c[nH]c2ccccc12)C(=O)N[C@@H](CC(C)C)C(=O)N[C@H](C(=O)N[C@@H](CCCNC(=N)N)C(=O)N[C@@H](CCC(N)=O)C(=O)N[C@@H](CCCNC(=N)N)C(=O)N[C@@H](Cc1ccc(O)cc1)C(N)=O)[C@@H](C)O)C(C)C
B2: Compound 124 (peptide)
peptide: Isovaleryl-APEK([Ahx-γGlu-C18 diacid])PEAAAEPEEIQRYYVSLRHYYNWLTRQRY-NH2
SMILES: CC[C@H](C)[C@H](NC(=O)[C@H](CCC(=O)O)NC(=O)[C@H](CCC(=O)O)NC(=O)[C@@H]1CCCN1C(=O)[C@H](CCC(=O)O)NC(=O)[C@H](C)NC(=O)[C@H](C)NC(=O)[C@H](C)NC(=O)[C@H](CCC(=O)O)NC(=O)[C@@H]1CCCN1C(=O)[C@H](CCCCNC(=O)CCCCCNC(=O)CC[C@H](NC(=O)CCCCCCCCCCCCCCCCC(=O)O)C(=O)O)NC(=O)[C@H](CCC(=O)O)NC(=O)[C@@H]1CCCN1C(=O)[C@H](C)NC(=O)CC(C)C)C(=O)N[C@@H](CCC(N)=O)C(=O)N[C@@H](CCCNC(=N)N)C(=O)N[C@@H](Cc1ccc(O)cc1)C(=O)N[C@@H](Cc1ccc(O)cc1)C(=O)N[C@H](C(=O)N[C@@H](CO)C(=O)N[C@@H](CC(C)C)C(=O)N[C@@H](CCCNC(=N)N)C(=O)N[C@@H](Cc1c[nH]cn1)C(=O)N[C@@H](Cc1ccc(O)cc1)C(=O)N[C@@H](Cc1ccc(O)cc1)C(=O)N[C@@H](CC(N)=O)C(=O)N[C@@H](Cc1c[nH]c2ccccc12)C(=O)N[C@@H](CC(C)C)C(=O)N[C@H](C(=O)N[C@@H](CCCNC(=N)N)C(=O)N[C@@H](CCC(N)=O)C(=O)N[C@@H](CCCNC(=N)N)C(=O)N[C@@H](Cc1ccc(O)cc1)C(N)=O)[C@@H](C)O)C(C)C
B3: Compound 125 (peptide)
peptide: Isovaleryl-APEK([Ahx-γGlu-C18 diacid])PEEDASPEELQRYYVELRHYYNWLTRQRY-NH2
SMILES: CC(C)CC(=O)N[C@@H](C)C(=O)N1CCC[C@H]1C(=O)N[C@@H](CCC(=O)O)C(=O)N[C@@H](CCCCNC(=O)CCCCCNC(=O)CC[C@H](NC(=O)CCCCCCCCCCCCCCCCC(=O)O)C(=O)O)C(=O)N1CCC[C@H]1C(=O)N[C@@H](CCC(=O)O)C(=O)N[C@@H](CCC(=O)O)C(=O)N[C@@H](CC(=O)O)C(=O)N[C@@H](C)C(=O)N[C@@H](CO)C(=O)N1CCC[C@H]1C(=O)N[C@@H](CCC(=O)O)C(=O)N[C@@H](CCC(=O)O)C(=O)N[C@@H](CC(C)C)C(=O)N[C@@H](CCC(N)=O)C(=O)N[C@@H](CCCNC(=N)N)C(=O)N[C@@H](Cc1ccc(O)cc1)C(=O)N[C@@H](Cc1ccc(O)cc1)C(=O)N[C@H](C(=O)N[C@@H](CCC(=O)O)C(=O)N[C@@H](CC(C)C)C(=O)N[C@@H](CCCNC(=N)N)C(=O)N[C@@H](Cc1c[nH]cn1)C(=O)N[C@@H](Cc1ccc(O)cc1)C(=O)N[C@@H](Cc1ccc(O)cc1)C(=O)N[C@@H](CC(N)=O)C(=O)N[C@@H](Cc1c[nH]c2ccccc12)C(=O)N[C@@H](CC(C)C)C(=O)N[C@H](C(=O)N[C@@H](CCCNC(=N)N)C(=O)N[C@@H](CCC(N)=O)C(=O)N[C@@H](CCCNC(=N)N)C(=O)N[C@@H](Cc1ccc(O)cc1)C(N)=O)[C@@H](C)O)C(C)C
B4: Compound 126 (peptide)
peptide: Isovaleryl-APEK([Ahx-γGlu-C18 diacid])PEEDAEPEELQRYYVSLRHYYNWLTRQRY-NH2
SMILES: CC(C)CC(=O)N[C@@H](C)C(=O)N1CCC[C@H]1C(=O)N[C@@H](CCC(=O)O)C(=O)N[C@@H](CCCCNC(=O)CCCCCNC(=O)CC[C@H](NC(=O)CCCCCCCCCCCCCCCCC(=O)O)C(=O)O)C(=O)N1CCC[C@H]1C(=O)N[C@@H](CCC(=O)O)C(=O)N[C@@H](CCC(=O)O)C(=O)N[C@@H](CC(=O)O)C(=O)N[C@@H](C)C(=O)N[C@@H](CCC(=O)O)C(=O)N1CCC[C@H]1C(=O)N[C@@H](CCC(=O)O)C(=O)N[C@@H](CCC(=O)O)C(=O)N[C@@H](CC(C)C)C(=O)N[C@@H](CCC(N)=O)C(=O)N[C@@H](CCCNC(=N)N)C(=O)N[C@@H](Cc1ccc(O)cc1)C(=O)N[C@@H](Cc1ccc(O)cc1)C(=O)N[C@H](C(=O)N[C@@H](CO)C(=O)N[C@@H](CC(C)C)C(=O)N[C@@H](CCCNC(=N)N)C(=O)N[C@@H](Cc1c[nH]cn1)C(=O)N[C@@H](Cc1ccc(O)cc1)C(=O)N[C@@H](Cc1ccc(O)cc1)C(=O)N[C@@H](CC(N)=O)C(=O)N[C@@H](Cc1c[nH]c2ccccc12)C(=O)N[C@@H](CC(C)C)C(=O)N[C@H](C(=O)N[C@@H](CCCNC(=N)N)C(=O)N[C@@H](CCC(N)=O)C(=O)N[C@@H](CCCNC(=N)N)C(=O)N[C@@H](Cc1ccc(O)cc1)C(N)=O)[C@@H](C)O)C(C)C
B5: Compound 127 (peptide)
peptide: Isovaleryl-APEK([Ahx-γGlu-C18 diacid])PEAAAEPEELQRYYVALRHYYNWLTRQRY-NH2
SMILES: CC(C)CC(=O)N[C@@H](C)C(=O)N1CCC[C@H]1C(=O)N[C@@H](CCC(=O)O)C(=O)N[C@@H](CCCCNC(=O)CCCCCNC(=O)CC[C@H](NC(=O)CCCCCCCCCCCCCCCCC(=O)O)C(=O)O)C(=O)N1CCC[C@H]1C(=O)N[C@@H](CCC(=O)O)C(=O)N[C@@H](C)C(=O)N[C@@H](C)C(=O)N[C@@H](C)C(=O)N[C@@H](CCC(=O)O)C(=O)N1CCC[C@H]1C(=O)N[C@@H](CCC(=O)O)C(=O)N[C@@H](CCC(=O)O)C(=O)N[C@@H](CC(C)C)C(=O)N[C@@H](CCC(N)=O)C(=O)N[C@@H](CCCNC(=N)N)C(=O)N[C@@H](Cc1ccc(O)cc1)C(=O)N[C@@H](Cc1ccc(O)cc1)C(=O)N[C@H](C(=O)N[C@@H](C)C(=O)N[C@@H](CC(C)C)C(=O)N[C@@H](CCCNC(=N)N)C(=O)N[C@@H](Cc1c[nH]cn1)C(=O)N[C@@H](Cc1ccc(O)cc1)C(=O)N[C@@H](Cc1ccc(O)cc1)C(=O)N[C@@H](CC(N)=O)C(=O)N[C@@H](Cc1c[nH]c2ccccc12)C(=O)N[C@@H](CC(C)C)C(=O)N[C@H](C(=O)N[C@@H](CCCNC(=N)N)C(=O)N[C@@H](CCC(N)=O)C(=O)N[C@@H](CCCNC(=N)N)C(=O)N[C@@H](Cc1ccc(O)cc1)C(N)=O)[C@@H](C)O)C(C)C
B6: Compound 130 (peptide)
peptide: Isovaleryl-APEK([Ahx-γGlu-C18 diacid])PEEDATPEELQLYYVSLRHYYNWLTRQRY-NH2
SMILES: CC(C)CC(=O)N[C@@H](C)C(=O)N1CCC[C@H]1C(=O)N[C@@H](CCC(=O)O)C(=O)N[C@@H](CCCCNC(=O)CCCCCNC(=O)CC[C@H](NC(=O)CCCCCCCCCCCCCCCCC(=O)O)C(=O)O)C(=O)N1CCC[C@H]1C(=O)N[C@@H](CCC(=O)O)C(=O)N[C@@H](CCC(=O)O)C(=O)N[C@@H](CC(=O)O)C(=O)N[C@@H](C)C(=O)N[C@H](C(=O)N1CCC[C@H]1C(=O)N[C@@H](CCC(=O)O)C(=O)N[C@@H](CCC(=O)O)C(=O)N[C@@H](CC(C)C)C(=O)N[C@@H](CCC(N)=O)C(=O)N[C@@H](CC(C)C)C(=O)N[C@@H](Cc1ccc(O)cc1)C(=O)N[C@@H](Cc1ccc(O)cc1)C(=O)N[C@H](C(=O)N[C@@H](CO)C(=O)N[C@@H](CC(C)C)C(=O)N[C@@H](CCCNC(=N)N)C(=O)N[C@@H](Cc1c[nH]cn1)C(=O)N[C@@H](Cc1ccc(O)cc1)C(=O)N[C@@H](Cc1ccc(O)cc1)C(=O)N[C@@H](CC(N)=O)C(=O)N[C@@H](Cc1c[nH]c2ccccc12)C(=O)N[C@@H](CC(C)C)C(=O)N[C@H](C(=O)N[C@@H](CCCNC(=N)N)C(=O)N[C@@H](CCC(N)=O)C(=O)N[C@@H](CCCNC(=N)N)C(=O)N[C@@H](Cc1ccc(O)cc1)C(N)=O)[C@@H](C)O)C(C)C)[C@@H](C)O

Target: T1, human NPY2 receptor
Experiment: RLB: displacement of 125I-PYY(1-36) from hNPY2R membranes

Row | Binder | Ki [nM]
1 | B1 | 3.65
2 | B2 | 3.07
3 | B3 | 3.37
4 | B4 | 4.42
5 | B5 | 3.36
6 | B6 | 9.36
